Measurements from patent US20260167699A1 (Chugai, published 2026).

Key:
Experiment in all cases: SPR; % of GpH7-A5/GpH7-B3/GpL16-k0
[1] = biological target: T1, FcγRIIa(H) extracellular domain with C-terminal His tag (human, UniProt P12318 34-217)
T1 construct: extracellular domain; H131 allotype; also called 2aH; CD32
T1 sequence: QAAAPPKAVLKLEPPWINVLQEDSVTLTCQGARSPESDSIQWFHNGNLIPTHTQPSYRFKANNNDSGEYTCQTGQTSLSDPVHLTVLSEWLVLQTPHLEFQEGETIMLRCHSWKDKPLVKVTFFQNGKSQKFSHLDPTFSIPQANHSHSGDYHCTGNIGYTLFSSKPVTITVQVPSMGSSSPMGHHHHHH

[2] = biological target: T2, FcγRIa extracellular domain with C-terminal His tag (human, UniProt P12314 16-292)
T2 construct: extracellular domain; also called 1a; CD64
T2 sequence (P12314 other isoform, or with tags, fused parts or gaps): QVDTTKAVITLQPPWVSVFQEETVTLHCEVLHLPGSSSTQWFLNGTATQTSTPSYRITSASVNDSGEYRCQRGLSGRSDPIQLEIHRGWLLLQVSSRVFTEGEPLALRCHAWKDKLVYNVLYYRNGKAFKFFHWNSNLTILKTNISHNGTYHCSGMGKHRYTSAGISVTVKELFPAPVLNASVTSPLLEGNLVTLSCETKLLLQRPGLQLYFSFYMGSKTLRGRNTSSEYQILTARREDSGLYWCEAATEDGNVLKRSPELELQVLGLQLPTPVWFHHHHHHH

[3] = biological target: T3, FcγRIIIa extracellular domain with C-terminal His tag (human, UniProt P08637 17-208)
T3 construct: extracellular domain; also called 3a; CD16
T3 sequence (P08637 other isoform, or with tags, fused parts or gaps): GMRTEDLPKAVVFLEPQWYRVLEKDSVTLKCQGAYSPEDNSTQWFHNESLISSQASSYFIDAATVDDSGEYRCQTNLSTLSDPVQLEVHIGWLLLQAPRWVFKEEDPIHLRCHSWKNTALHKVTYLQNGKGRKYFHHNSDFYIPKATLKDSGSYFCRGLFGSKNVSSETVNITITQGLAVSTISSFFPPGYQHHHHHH

[4] = biological target: T4, FcγRIIa(R) extracellular domain with C-terminal His tag (human, UniProt P12318 34-217)
T4 construct: extracellular domain; R131 allotype; also called 2aR; CD32
T4 sequence: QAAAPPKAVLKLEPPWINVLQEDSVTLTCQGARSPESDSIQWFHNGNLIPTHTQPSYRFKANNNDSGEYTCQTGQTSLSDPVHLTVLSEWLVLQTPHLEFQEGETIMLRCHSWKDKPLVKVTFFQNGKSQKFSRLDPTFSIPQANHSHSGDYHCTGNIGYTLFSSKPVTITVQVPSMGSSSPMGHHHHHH

[5] = biological target: T5, FcγRIIb extracellular domain with C-terminal His tag (human, UniProt P31994 43-217)
T5 construct: extracellular domain; also called 2b; CD32
T5 sequence: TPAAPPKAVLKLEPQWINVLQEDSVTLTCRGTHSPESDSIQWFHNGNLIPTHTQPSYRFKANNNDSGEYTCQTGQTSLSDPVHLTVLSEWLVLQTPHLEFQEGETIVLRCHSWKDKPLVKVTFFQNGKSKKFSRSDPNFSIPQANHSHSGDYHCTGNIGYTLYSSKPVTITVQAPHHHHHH

B1: GpH7-A5/GpH7-B3 variant E333_09D/GpL16-k0 (antibody, human IgG1, kappa)
heavy 1: not shown
heavy 2: not shown
light: DIVMTQSPLSLPVTPGEPASISCQASESLVHSNRNTYLHWYLQKPGQSPQLLIYKVSNRFSGVPDRFSGSGSGTDFTLKISRVEAEDVGVYYCSQNTHVPPTFGQGTKVEIERTVAAPSVFIFPPSDEQLKSGTASVVCLLNNFYPREAKVQWKVDNALQSGNSQESVTEQDSKDSTYSLSSTLTLSKADYEKHKVYACEVTHQGLSSPVTKSFNRGEC
notes: heterodimerized IgG1 (He Ab), mutation in one H chain only; also called He Ab
With B1 the “He/Con 2aH” value [1] was 119%, the “He/Con 1a” value [2] was 98% and the “He/Con 3a” value [3] was 115%. The “He/Con 2aR” value [4] was 141% and the “He/Con 2b” value [5] was 122%.

B2: GpH7-A5/GpH7-B3 variant E333_12R/GpL16-k0 (antibody, human IgG1, kappa)
heavy 1: not shown
heavy 2: not shown
light: DIVMTQSPLSLPVTPGEPASISCQASESLVHSNRNTYLHWYLQKPGQSPQLLIYKVSNRFSGVPDRFSGSGSGTDFTLKISRVEAEDVGVYYCSQNTHVPPTFGQGTKVEIERTVAAPSVFIFPPSDEQLKSGTASVVCLLNNFYPREAKVQWKVDNALQSGNSQESVTEQDSKDSTYSLSSTLTLSKADYEKHKVYACEVTHQGLSSPVTKSFNRGEC
notes: as for B1
B2 was tested, and the “He/Con 2aH” value [1] was 110%, the “He/Con 1a” value [2] was 96.7% and the “He/Con 3a” value [3] was 92.2%. For the same binder, the “He/Con 2aR” value [4] was 127% and the “He/Con 2b” value [5] was 104%.

B3: GpH7-A5/GpH7-B3 variant E333_16H/GpL16-k0 (antibody, human IgG1, kappa)
heavy 1: not shown
heavy 2: not shown
light: DIVMTQSPLSLPVTPGEPASISCQASESLVHSNRNTYLHWYLQKPGQSPQLLIYKVSNRFSGVPDRFSGSGSGTDFTLKISRVEAEDVGVYYCSQNTHVPPTFGQGTKVEIERTVAAPSVFIFPPSDEQLKSGTASVVCLLNNFYPREAKVQWKVDNALQSGNSQESVTEQDSKDSTYSLSSTLTLSKADYEKHKVYACEVTHQGLSSPVTKSFNRGEC
notes: as for B1
For B3, the “He/Con 2aH” value [1] was 114%, the “He/Con 1a” value [2] was 95.4% and the “He/Con 3a” value [3] was 106%. For the same binder, the “He/Con 2aR” value [4] was 119% and the “He/Con 2b” value [5] was 108%.

B4: GpH7-A5/GpH7-B3 variant E333_14T/GpL16-k0 (antibody, human IgG1, kappa)
heavy 1: not shown
heavy 2: not shown
light: DIVMTQSPLSLPVTPGEPASISCQASESLVHSNRNTYLHWYLQKPGQSPQLLIYKVSNRFSGVPDRFSGSGSGTDFTLKISRVEAEDVGVYYCSQNTHVPPTFGQGTKVEIERTVAAPSVFIFPPSDEQLKSGTASVVCLLNNFYPREAKVQWKVDNALQSGNSQESVTEQDSKDSTYSLSSTLTLSKADYEKHKVYACEVTHQGLSSPVTKSFNRGEC
notes: as for B1
For B4, the “He/Con 2aH” value [1] was 115%, the “He/Con 1a” value [2] was 96.7% and the “He/Con 3a” value [3] was 100%. For the same binder, the “He/Con 2aR” value [4] was 135% and the “He/Con 2b” value [5] was 111%.

B5: GpH7-A5/GpH7-B3 variant E333_11K/GpL16-k0 (antibody, human IgG1, kappa)
heavy 1: not shown
heavy 2: not shown
light: DIVMTQSPLSLPVTPGEPASISCQASESLVHSNRNTYLHWYLQKPGQSPQLLIYKVSNRFSGVPDRFSGSGSGTDFTLKISRVEAEDVGVYYCSQNTHVPPTFGQGTKVEIERTVAAPSVFIFPPSDEQLKSGTASVVCLLNNFYPREAKVQWKVDNALQSGNSQESVTEQDSKDSTYSLSSTLTLSKADYEKHKVYACEVTHQGLSSPVTKSFNRGEC
notes: as for B1
B5 was tested, and the “He/Con 2aH” value [1] was 112%, the “He/Con 1a” value [2] was 96.6% and the “He/Con 3a” value [3] was 97.7%. For the same binder, the “He/Con 2aR” value [4] was 128% and the “He/Con 2b” value [5] was 104%.

B6: GpH7-A5/GpH7-B3 variant E333_15Y/GpL16-k0 (antibody, human IgG1, kappa)
heavy 1: not shown
heavy 2: not shown
light: DIVMTQSPLSLPVTPGEPASISCQASESLVHSNRNTYLHWYLQKPGQSPQLLIYKVSNRFSGVPDRFSGSGSGTDFTLKISRVEAEDVGVYYCSQNTHVPPTFGQGTKVEIERTVAAPSVFIFPPSDEQLKSGTASVVCLLNNFYPREAKVQWKVDNALQSGNSQESVTEQDSKDSTYSLSSTLTLSKADYEKHKVYACEVTHQGLSSPVTKSFNRGEC
notes: as for B1
With B6 the “He/Con 2aH” value [1] was 114%, the “He/Con 1a” value [2] was 95.8% and the “He/Con 3a” value [3] was 101%. For the same binder, the “He/Con 2aR” value [4] was 137% and the “He/Con 2b” value [5] was 122%.

B7: GpH7-A5/GpH7-B3 variant E333_13S/GpL16-k0 (antibody, human IgG1, kappa)
heavy 1: not shown
heavy 2: not shown
light: DIVMTQSPLSLPVTPGEPASISCQASESLVHSNRNTYLHWYLQKPGQSPQLLIYKVSNRFSGVPDRFSGSGSGTDFTLKISRVEAEDVGVYYCSQNTHVPPTFGQGTKVEIERTVAAPSVFIFPPSDEQLKSGTASVVCLLNNFYPREAKVQWKVDNALQSGNSQESVTEQDSKDSTYSLSSTLTLSKADYEKHKVYACEVTHQGLSSPVTKSFNRGEC
notes: as for B1
With B7 the “He/Con 2aH” value [1] was 115%, the “He/Con 1a” value [2] was 97.6% and the “He/Con 3a” value [3] was 106%. For the same binder, the “He/Con 2aR” value [4] was 125% and the “He/Con 2b” value [5] was 106%.
